In paper PMC5458078, “Global mapping of CARM1 substrates defines enzyme specificity and substrate recognition” (Nature Communications, 2017):

What was measured:
[1] = test system: total cell lysates derived from MCF7 CARM1 KO cells; experiment: In vitro methylation of total cell lysates by recombinant CARM1 proteins, autoradiography; format: biochemical, human; details: 3H-SAM, 1–4 h, 30 °C
Description: (§1) The FL and N-terminal domain-deleted version of human CARM1 cDNAs, and other PRMT FL cDNAs were cloned into pFN21K Halo Tag CMV Flexi mammalian expression vector (Promega, Madison, WI) using the unique Sgfl and Pmel site[55]. To express the protein, DNA constructs were transiently transfected into HEK293T CARM1 KO cells in 15 cm dishes using transIT-LT1 reagent (Mirus Bio, Madison, WI) according to the manufacturer's protocol. Proteins were allowed to express for 48 h. Cell pellets were then collected and lysed in lysis buffer (50 mM HEPES, pH 7.5, 150 mM NaCl, 0.005% NP-40, 0.5 mM EDTA, supplemented with 1 × protease inhibitor cocktail before use). The cells were sonicated on ice using a Branson Sonifier 450 with a microtip at 35% amplitude (10 s on, 30 s off, 6 cycles). […] The resin was centrifuged at 3,000 r.p.m. for 5 min, and the supernatant containing the cleaved protein was collected and protein concentration was determined using the Bradford assay (Thermo Scientific, Rockford, IL). Protein purity was assessed by running SDS–PAGE and Coomassie Blue staining.
Purified recombinant enzyme and substrates were incubated in methylation buffer (50 mM Tris-HCl, pH 8.0, 100 mM NaCl and 0.5 mM EDTA) for 1–4 h at 30 °C in the presence of 1 μl radioactive S-adenosyl-L-[methyl-^3H] methionine. […] Protein methylation was detected by autoradiography.

[2] = test system: GST fused MED12, BAF155 and PABP1 peptides; experiment: In vitro methylation of GST fused peptides by recombinant CARM1 proteins, autoradiography; format: biochemical; details: 3H-SAM, 1–4 h, 30 °C; compared with CARM1 FL and CARM1 28–608
Description: as §1, with “cycles). The crude lysate was cleared by centrifugation (15,000 r.p.m., 4 °C, 20 min).” for “cycles).”
The DNA fragments were cloned into pGEX-2T GST expression vector (GE Healthcare, Waukesha, WI). […] Protein concentration was then determined using Bradford assay and protein purity was assessed by SDS–PAGE and Coomassie Blue staining. […]

HEK293T CARM1 KO cells = experiment: Rescue of endogenous BAF155 and MED12 methylation, transient transfection, western blot; format: cell-based; details: transient expression in HEK293T CARM1 KO cells
Description: Next, we transiently transfected FL and the two aforementioned CARM1 truncations in HEK293T CARM1 KO cells and measured substrate methylation by western blotting with ADMA antibodies.
Cells were collected by trypsinization, washed with Dulbecco's phosphate buffer saline (Life Technologies, Carlsbad, CA) and lysed by suspension in lysis buffer (50 mM Tris-HCl pH 8.0, 150 mM NaCl, 10% glycerol, 0.5% Triton X-100 and 1 × protease inhibitor cocktail (Sigma-Aldrich)). After brief sonication followed by centrifugation, total protein was quantified using the BioRad Protein Assay (BioRad, Hercules, CA), and 20 μg protein was resolved by SDS–PAGE. Proteins were transferred to a nitrocellulose membrane for 1.5 h at 350 mA. Membranes were blocked with 5% nonfat milk at room temperature for 1 h and incubated overnight with diluted primary antibody at 4 °C. Membranes were then washed and incubated with HRP-conjugated secondary antibody for 1 h at room temperature. Signal was visualized by enhanced chemiluminescence reagents (Thermo Scientific, Rockford, IL) and X-ray film exposure followed by scanning and digitalization. Me-PABP1 and PABP1 antibodies, me-BAF155 antibody[20] and me-MED12 antibody[30] were generated previously in the Xu lab. FLAG antibody (catalogue #F7425) was purchased from Sigma and used at a dilution of 1:5,000; BAF155 antibody (sc-10756) was purchased from Santa Cruz and used at a dilution of 1:1,000; MED12 antibody (ab70842) was purchased from Abcam (Cambridge, MA) and used at 1:1,000 dilution.

B1: CARM1 140–608: CARM1 140–608 lacks the first 140 residues encompassing the EVH1 domain (protein)
chain: RTEESSAVQYFQFYGYLSQQQNMMQDYVRTGTYQRAILQNHTDFKDKIVLDVGCGSGILSFFAAQAGARKIYAVEASTMAQHAEVLVKSNNLTDRIVVIPGKVEEVSLPEQVDIIISEPMGYMLFNERMLESYLHAKKYLKPSGNMFPTIGDVHLAPFTDEQLYMEQFTKANFWYQPSFHGVDLSALRGAAVDEYFRQPVVDTFDIRILMAKSVKYTVNFLEAKEGDLHRIEIPFKFHMLHSGLVHGLAFWFDVAFIGSIMTVWLSTAPTEPLTHWYQVRCLFQSPLFAKAGDTLSGTCLLIANKRQSYDISIVAQVDQTGSKSSNLLDLKNPFFRYTGTTPSPPPGSHYTSPSENMWNTGSTYNLSSGMAVAGMPTAYDLSSVIASGSSVGHNNLIPLANTGIVNHTHSRMGSIMSTGIVQGSSGAQGSGGGSTSAHYAVNSQFTMGGPAISMASPMSIPTNTMHYGS
modifications: left off: FLAG, end not stated, kept
notes: CARM1 140–608 lacks the first 140 residues encompassing the EVH1 domain
Question: B1 was tested. Which “Total protein methylation of cell lysate” value [1] did it give?
Answer: substantial reduction of total protein methylation

Question: What about the “Methylation of GST fused MED12, BAF155 and PABP1 peptides and other protein substrates” value [2] of the same molecule?
Answer: greatly reduced ability

Question: What about the “Methylation of endogenous BAF155 and MED12” value (HEK293T CARM1 KO cells) of the same molecule?
Answer: failed to restore endogenous protein methylation
